In paper PMC6215714 (Nature chemical biology, 2015):

Target: Growth arrest specific 6 (Gas6), soluble, His-tagged (Homo sapiens, UniProt Q14393)
Assay: flow cytometry on cells

Sequence of Growth arrest specific 6 (Gas6), soluble, His-tagged (Q14393 31-678): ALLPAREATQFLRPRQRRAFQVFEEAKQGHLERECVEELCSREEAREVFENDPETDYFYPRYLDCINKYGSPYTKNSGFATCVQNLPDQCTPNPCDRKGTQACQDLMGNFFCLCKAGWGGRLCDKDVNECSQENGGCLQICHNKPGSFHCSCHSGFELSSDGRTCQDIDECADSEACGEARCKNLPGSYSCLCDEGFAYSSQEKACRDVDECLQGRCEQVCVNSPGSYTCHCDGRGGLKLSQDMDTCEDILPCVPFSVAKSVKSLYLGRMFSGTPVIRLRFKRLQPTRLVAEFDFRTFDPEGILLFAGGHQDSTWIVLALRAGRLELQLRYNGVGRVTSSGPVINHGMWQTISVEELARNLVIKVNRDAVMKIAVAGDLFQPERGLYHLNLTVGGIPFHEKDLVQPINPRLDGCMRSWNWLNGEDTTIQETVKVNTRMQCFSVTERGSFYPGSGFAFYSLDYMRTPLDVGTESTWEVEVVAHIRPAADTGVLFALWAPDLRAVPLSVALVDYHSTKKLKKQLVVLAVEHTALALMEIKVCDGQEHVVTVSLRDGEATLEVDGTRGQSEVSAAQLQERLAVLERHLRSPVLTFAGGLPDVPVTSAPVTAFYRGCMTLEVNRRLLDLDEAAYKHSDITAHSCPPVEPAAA

B1: anti-Gas6 scFv identified by μSCALE from a naïve yeast-displayed scFv library (scFv, V domains shown)
VH: EVQLVESGGGLVQPGGSLRLSCAASGFNISYGGSYIHWVRQAPGKGLEWVASIYPGGGYTYYADSVKGRFTISADTSKNTAYLQMNSLRAEDTAVYYCARTVRGSKKPYFSGWAMDYWGQGTLVTVSS
VL: DIQMTQSPSSLSASVGDRVTITCRASQYGGYGGVAWYQQKPGKAPKLLIYYASSLYSGVPSRFSGSRSGTDFTLTISSLQPEDFATYYCQQWWGYPITFGQGTKVEIK
Q: How did the Kd turn out when B1 was run?
A: 130 nM
